Reference: PMC2908255

Target: Erk2 (UniProt P63086)
Assay: ITC

Kd: 549 nM | dH: -10.8 kcal/mol | stoichiometry N: 0.95
Substance: HePTP 15-339 (includes the KIM) (domain or fragment)
